In PMC2738593 (Nature methods, 2009):
Read-outs that look alike come from different tables or passages of the source.

How the values were obtained:
[1] = biological target: the molecule itself; assay: crystal structure
[2] = biological target: the molecule itself; assay: crystal structure; remark: listed apart in the source

Row | Protein | stoichiometry N [1] | stoichiometry N [2]
1 | cysteine-less HCN2I fragment (carboxyl-terminal region of mouse HCN2, C-linker and CNBD, residues 443-640) (domain or fragment, UniProt O88703 443-640, looked up) DSSRRQYQEKYKQVEQYMSFHKLPADFRQKIHDYYEHRYQGKMFDEDSILGELNGPLREEIVNFNNRKLVASMPLFANADPNFVTAMLTKLKFEVFQPGDYIIREGTIGKKMYFIQHGVVSVLTKGNKEMKLSDGSYFGEISLLTRGRRTASVRADTYSRLYSLSVDNFNEVLEEYPMMRRAFETVAIDRLDRIGKKN | 4 | 
2 | wild-type mouse HCN2I construct (carboxyl-terminal fragment of HCN2, C-linker and CNBD, residues 443-640) (domain or fragment, UniProt O88703 443-640, looked up) DSSRRQYQEKYKQVEQYMSFHKLPADFRQKIHDYYEHRYQGKMFDEDSILGELNGPLREEIVNFNCRKLVASMPLFANADPNFVTAMLTKLKFEVFQPGDYIIREGTIGKKMYFIQHGVVSVLTKGNKEMKLSDGSYFGEICLLTRGRRTASVRADTYCRLYSLSVDNFNEVLEEYPMMRRAFETVAIDRLDRIGKKN |  | 4
